# Results published in publication PMC4240464 (The Febs Journal, 2013).
# Read-outs that look alike come from different tables or passages of the source.
# B1: CCL23 (ligand)
# chain: RVTKDAETEFMMSKLPLENPVLLDRFHATSADCCISYTPRSIPCSLLESYFETNSECSKPGVIFLTKKGRRFCANPSDKQVQVCMRMLKLDTRIKTRKN
# B2: CCL8 (ligand)
# chain: QPDSVSIPITCCFNVINRKIPIQRLESYTRITNIQCPKEAVIFKTKRGKEVCADPKERWVRDSMKHLDQIFQNLKP
# B3: CCL11 (ligand)
# chain: not shown
# B4: CCL1 (ligand)
# chain: KSMQVPFSRCCFSFAEQEIPLRAILCYRNTSSICSNEGLIFKLKRGKEACALDTVGWVQRHRKMLRHCPSKRK
# B5: CCL22 (ligand)
# chain: GPYGANMEDSVCCRDYVRYRLPLRVVKHFYWTSDSCPRPGVVLLTFRDKEICADPRVPWVKMILNKLSQ
# B6: CCL24 (ligand)
# chain: VVIPSPCCMFFVSKRIPENRVVSYQLSSRSTCLKAGVIFTTKKGQQFCGDPKQEWVQRYMKNLDAKQKKASPRARAVAVKGPVQRYPGNQTTC
# B7: CCL15 (ligand)
# chain: QFTNDAETELMMSKLPLENPVVLNSFHFAADCCTSYISQSIPCSLMKSYFETSSECSKPGVIFLTKKGRQVCAKPSGPGVQDCMKKLKPYSI
# B8: CCL5 E26A (ligand)
# chain: SPYSSDTTPCCFAYIARPLPRAHIKAYFYTSGKCSNPAVVFVTRKNRQVCANPEKKWVREYINSLEMS
# B9: CCL7 (ligand)
# chain: not shown
# B10: CCL3 (ligand)
# chain: SLAADTPTACCFSYTSRQIPQNFIADYFETSSQCSKPGVIFLTKRSRQVCADPSEEWVQKYVSDLELSA
# B11: CCL26 (ligand)
# chain: TRGSDISKTCCFQYSHKPLPWTWVRSYEFTSNSCSQRAVIFTTKRGKKVCTHPRKKWVQKYISLLKTPKQL
# B12: CCL16 (ligand)
# chain: QPKVPEWVNTPSTCCLKYYEKVLPRRLVVGYRKALNCHLPAIIFVTKRNREVCTNPNDDWVQEYIKDPNLPLLPTRNLSTVKIITAKNGQPQLLNSQ
# B13: CCL17 (ligand)
# chain: ARGTNVGRECCLEYFKGAIPLRKLKTWYQTSEDCSRDAIVFVTVQGRAICSDPNNKRVKNAVKYLQSLERS
# B14: CCL14 (ligand)
# chain: TKTESSSRGPYHPSECCFTYTTYKIPRQRIMDYYETNSQCSKPGIVFITKRGHSVCTNPSDKWVQDYIKDMKEN
# B15: CCL19 (ligand)
# chain: GTNDAEDCCLSVTQKPIPGYIVRNFHYLLIKDGCRVPAVVFTTLRGRQLCAPPDQPWVERIIQRLQRTSAKMKRRSS
# B16: 6His–Evasin-4 (natural protein)
# chain: EVPQMTSSSAPDLEEEDDYTAYAPLTCYFTNSTLGLLAPPNCSVLCNSTTTWFNETSPNNASCLLTVDFLTQDAILQENQPYNCSVGHCDNGTCAGPPRHAQCW
# B17: CCL18 (ligand)
# chain: AQVGTNKELCCLVYTSWQIPQKFIVDYSETSPQCPKPGVILLTKRGRQICADPNKKWVQKYISDLKLNA
# Tests used:
# Assay in all cases: SPR
# [1] = target: T1, Evasin-4 (untagged recombinant) (Rhipicephalus sanguineus, UniProt P0C8E9 24-127, appears to be highly glycosylated (six putative N-glycosylation sites))
# T1 sequence: B16 chain
# 6His–Evasin-4 [2] = target: B16
# 6His–Evasin-4 [3] = target: B16; remark: listed apart in the source
# CCL21 = target: T2, CCL21 (human, UniProt O00585 24-134)
# T2 sequence: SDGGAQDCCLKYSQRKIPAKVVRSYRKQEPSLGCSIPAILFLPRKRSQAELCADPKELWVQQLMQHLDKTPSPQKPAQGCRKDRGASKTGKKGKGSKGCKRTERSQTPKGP
# CCL25 = target: T3, CCL25 (human, UniProt O15444 24-150)
# T3 sequence: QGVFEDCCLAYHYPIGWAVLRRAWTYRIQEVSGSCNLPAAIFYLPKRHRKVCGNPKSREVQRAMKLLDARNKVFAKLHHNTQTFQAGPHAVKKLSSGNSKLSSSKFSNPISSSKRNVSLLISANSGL
Binder,Kd [1] [pM],Kd (6His–Evasin-4 [2]) [pM],koff (6His–Evasin-4 [2]) [s⁻¹],kon (6His–Evasin-4 [2]) [M⁻¹ s⁻¹],Kd (6His–Evasin-4 [3]) [pM],Kd (CCL21) [pM],koff (CCL21) [s⁻¹],kon (CCL21) [M⁻¹ s⁻¹],Kd (CCL25) [pM],koff (CCL25) [s⁻¹],kon (CCL25) [M⁻¹ s⁻¹]
B1,14100,4430,3e-05,6000,10800,,,,,,
B2,,250,0.00176,7.11e+06,220,,,,,,
B3,128000,340,0.00435,1.29e+07,69,,,,,,
B4,112000,200,0.00326,1.66e+07,1810,,,,,,
B5,,430,0.0038,8.9e+06,,,,,,,
B6,,410,0.0125,3.05e+07,142000,,,,,,
B7,132000,2310,0.0936,4.05e+07,199,,,,,,
B8,194000,90,0.00223,2.6e+07,2,,,,,,
B9,,700,0.00988,1.41e+07,45,,,,,,
B10,33100,60,0.00089,1.38e+07,393,,,,,,
B11,,880,0.00015,170000,11400,,,,,,
B12,,260,0.00306,1.2e+07,,,,,,,
B13,126000,610,0.0107,1.76e+07,,,,,,,
B14,,140,0.00148,1.04e+07,,,,,,,
B15,,140,0.00035,2.57e+06,,,,,,,
B16,,,,,,10,8e-05,1.1e+07,69600,0.00054,8000
B17,,30,0.00053,1.96e+07,198,,,,,,
